Changes are numbered by the printed parent chain.
Key:
[1] = target: human CD3ε expressed on the cell surface of T cells (Jurkat clone E6-1; human CD8+ T cells) (human) (UniProt P07766); assay: cell-based or functional assay
[2] = target: T1, human CD3ε expressed on the cell surface of T cells (Jurkat clone E6-1; human CD8+ T cells) (human, UniProt P07766 23-207); assay: cell-based or functional assay
[3] = target: T1, human CD3ε expressed on the cell …; assay: cell-based or functional assay; remark: listed apart in the source
[4] = target: human heterodimeric single-chain CD3εγ extracellular domain (human) (UniProt P07766); assay: SPR, human scCD3εγ ECD immobilised, scDb injected
[5] = target: human CD3ε expressed on the cell surface of T cells (Jurkat clone E6-1; human CD8+ T cells) (human) (UniProt P07766); assay: cell-based or functional assay; remark: listed apart in the source

OKT3 (BioLegend, Cat. No. 317302) (antibody)
Fold increase in CD69 expression [MFI normalized to neg. ctrl.], 1.25 µg/ml anti-CD3 IgG, Jurkat cells, 24 h [1]: 1.8 fold
Fold increase in CD69 expression [MFI normalized to neg. ctrl.], 5 µg/ml anti-CD3 IgG, Jurkat cells, 24 h [1]: 2.5 fold
Fold increase in CD69 expression [MFI normalized to neg. ctrl.], 20 µg/ml anti-CD3 IgG, Jurkat cells, 24 h [1]: 3.1 fold

TR66 (Novus Biologicals, Cat. No. NBP1-97446) (antibody)
Fold increase in CD69 expression [MFI normalized to neg. ctrl.], 1.25 µg/ml anti-CD3 IgG, Jurkat cells, 24 h [1]: 1.6 fold
Fold increase in CD69 expression [MFI normalized to neg. ctrl.], 5 µg/ml anti-CD3 IgG, Jurkat cells, 24 h [1]: 2.2 fold
Fold increase in CD69 expression [MFI normalized to neg. ctrl.], 20 µg/ml anti-CD3 IgG, Jurkat cells, 24 h [1]: 3 fold

B1: clone-02 (monoclonal rabbit anti-CD3ε antibody) (antibody, V domains shown)
VH: QSLEESGGRLVTPGTPLTLTCTVSGFPLSAYAMIWVRQAPGKGLEWIGMIIRSGTVYYANWAKGRFTISKTSTTVDLKITSPTTEDTATYFCARRHYNADGYPIGIGDLWGPGTLVTVSS
VL: AQVLTQTPSSVSAVVGGTVTISCQSSESVYSNNRLSWFQQKPGQPPKLLIYSASTLASGVPSRFKGSGSGTQFTLTITDLECDDAATYFCQGEFSCSSVDCFSFGGGTEVVVKG
Fold increase in CD69 expression [MFI normalized to neg. ctrl.], 1.25 µg/ml anti-CD3 IgG, Jurkat cells, 24 h [2]: 3.3 fold
Fold increase in CD69 expression [MFI normalized to neg. ctrl.], 5 µg/ml anti-CD3 IgG, Jurkat cells, 24 h [2]: 4.6 fold
Fold increase in CD69 expression [MFI normalized to neg. ctrl.], 20 µg/ml anti-CD3 IgG, Jurkat cells, 24 h [2]: 7.4 fold

B2: bispecific anti-IL5R×CD3ε single-chain diabody containing Numab's humanized clone 6 anti-CD3 variable domain (Example 9) (bispecific antibody)
chain: DIQMTQSPSSLSASVGDRVTITCQASQNIYSNLAWYQQKPGKAPKLLIYRASTLASGVPSRFSGSGSGTDFTLTISSLQPEDFATYYCQSNYGINYYGAAFGQGTKLTVLGGGGGSEVQLVESGGGLVQPGGSLRLSCAASGFPLSSYAMIWVRQAPGKGLEWIGMILRAGNIYYASWVKGRFTISRDNSKNTVYLQMNSLRAEDTAVYYCARRHYNREGYPIGIGDLWGQGTLVTVSSGGGGSGGGGSGGGGSGGGGSDIQMTQSPSSLSASVGDRVTITCQSSESVYNNKRLSWYQQKPGKAPKLLIYTASSLASGVPSRFSGSGSGTDFTLTISSLQPEDFATYYCQGEFTCSNADCFTFGQGTKLTVLGGGGGSEVQLVESGGGLVQPGGSLRLSCAASGFSLSSYDMTWVRQAPGKGLEWIGIIYVSGSAYYASWAKGRFTISRDNSKNTVYLQMNSLRAEDTAVYYCARINYGLDLWGQGTLVTVSS
EC50 of specific lysis of CHO-IL5R target cells by CD8+ T cells at 64 hours [3]: 0.31 nM

B3: clone-10 (monoclonal rabbit anti-CD3ε antibody) (antibody, V domains shown)
VH: QSLEESGGRLVTPGTPLTLTCTVSGFPLSSFAMLWVRQAPGKGLEWIGMIMRAHNMYYASWAKGRFTISKTSTTVDLEITSPTTEDTATYFCARRHYNTYGYPIAIGDLWGPGTLVTVSS
VL: AQVLTQTPSSVSAAVGGTATISCQSNENIYSNNRLSWFQQKAGQPPNQLIYSASSLASGVPSRFKGSGSGTQFTLTISDLECDDAATYYCQGEFSCSSADCFTFGGGTEVVVKG
Fold increase in CD69 expression [MFI normalized to neg. ctrl.], 1.25 µg/ml anti-CD3 IgG, Jurkat cells, 24 h [2]: 2.6 fold
Fold increase in CD69 expression [MFI normalized to neg. ctrl.], 5 µg/ml anti-CD3 IgG, Jurkat cells, 24 h [2]: 4.2 fold
Fold increase in CD69 expression [MFI normalized to neg. ctrl.], 20 µg/ml anti-CD3 IgG, Jurkat cells, 24 h [2]: 6.2 fold

B4: clone-06 (monoclonal rabbit anti-CD3ε antibody) (antibody, V domains shown)
VH: QSVEESGGRLVTPGTPLTLTCTVSGFPLSSYAMIWVRQAPGKGLEWIGMILRAGNIYYASWVKGRVTISKTSTTVDLKITSPTTEDTATYFCARRHYNREGYPIGIGDLWGPGTLVTVSS
VL: AQVLTQTPSSVSAAVGGTVTISCQSSESVYNNKRLSWFQQKPGQPPKQLIYTASSLASGVPSRFKGSGSGTQFTLTISDLECDDAATYYCQGEFTCSNADCFTFGGGTEVVVKG
Fold increase in CD69 expression [MFI normalized to neg. ctrl.], 1.25 µg/ml anti-CD3 IgG, Jurkat cells, 24 h [2]: 2.7 fold
Fold increase in CD69 expression [MFI normalized to neg. ctrl.], 5 µg/ml anti-CD3 IgG, Jurkat cells, 24 h [2]: 5.1 fold
Fold increase in CD69 expression [MFI normalized to neg. ctrl.], 20 µg/ml anti-CD3 IgG, Jurkat cells, 24 h [2]: 5.3 fold

B5: clone-03 (monoclonal rabbit anti-CD3ε antibody) (antibody, V domains shown)
VH: B3 VH with S29N, S30R, F31Y, M49L, M51T, H54D, N55K, M56K, S81G, Y100D
VL: B3 VL with A19V, A42P, S95N, S97N
Fold increase in CD69 expression [MFI normalized to neg. ctrl.], 1.25 µg/ml anti-CD3 IgG, Jurkat cells, 24 h [2]: 2.6 fold
Fold increase in CD69 expression [MFI normalized to neg. ctrl.], 5 µg/ml anti-CD3 IgG, Jurkat cells, 24 h [2]: 4.6 fold
Fold increase in CD69 expression [MFI normalized to neg. ctrl.], 20 µg/ml anti-CD3 IgG, Jurkat cells, 24 h [2]: 6.6 fold

B6: clone-04 (monoclonal rabbit anti-CD3ε antibody) (antibody, V domains shown)
VH: QSLEESGGRLVKPDETLTLTCTVSGFPLSSYAMGWFRQAPGKGLEWIGMILRSDNTYYASWAKGRFTISKTSTTVDLKITSPTTEDTATYFCARRHYNASGNPIAIGDLWGPGTLVTVSS
VL: B4 VL with S22N, E27Q, K33N, Q48L, A53T, Q72E, D83A, T95S, N98R, T103N
Fold increase in CD69 expression [MFI normalized to neg. ctrl.], 1.25 µg/ml anti-CD3 IgG, Jurkat cells, 24 h [2]: 2.6 fold
Fold increase in CD69 expression [MFI normalized to neg. ctrl.], 5 µg/ml anti-CD3 IgG, Jurkat cells, 24 h [2]: 3.5 fold
Fold increase in CD69 expression [MFI normalized to neg. ctrl.], 20 µg/ml anti-CD3 IgG, Jurkat cells, 24 h [2]: 7.8 fold

B7: Construct 1, bispecific anti-CD3×IL5R single-chain diabody comprising the humanized variable domain of clone-06 (bispecific antibody, part only; not given: anti-IL5R domains and linkers, part only)
chain, part: DIQMTQSPSSLSASVGDRVTITCQSSESVYNNKRLSWYQQKPGKAPKLLIYTASSLASGVPSRFSGSGSGTDFTLTISSLQPEDFATYYCQGEFTCSNADCFTFGQGTKLTVLGEVQLVESGGGLVQPGGSLRLSCAASGFPLSSYAMIWVRQAPGKGLEWIGMILRAGNIYYASWVKGRFTISRDNSKNTVYLQMNSLRAEDTAVYYCARRHYNREGYPIGIGDLWGQGTLVTVSS
Kd [4]: 11.5 nM
Potency to lyse target cells [EC50] (CHO-IL5R cells, CD8+ T cells, 88 h) [5]: 0.1 nM
Potency to stimulate IL-2 secretion by T cells [EC50] [5]: 0.96 nM
